Experimental data: publication PMC11490551, “The homeodomain regulates stable DNA binding of prostate cancer target ONECUT2”
Substitutions are numbered along the chain they refer to.

T1: OC2 CUT domain;OC2 HOX domain (human;human, UniProt O95948;O95948 317-417;420-490, |)
T1 sequence 1: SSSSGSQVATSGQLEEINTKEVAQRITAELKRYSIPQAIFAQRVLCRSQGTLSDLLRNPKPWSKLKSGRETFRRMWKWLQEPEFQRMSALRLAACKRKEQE
T1 sequence 2: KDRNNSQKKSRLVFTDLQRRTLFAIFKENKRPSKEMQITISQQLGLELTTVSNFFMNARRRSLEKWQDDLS

T2: OC2 (CUT-HOX DNA binding region, wild type) (human, UniProt O95948 330-485)
T2 sequence: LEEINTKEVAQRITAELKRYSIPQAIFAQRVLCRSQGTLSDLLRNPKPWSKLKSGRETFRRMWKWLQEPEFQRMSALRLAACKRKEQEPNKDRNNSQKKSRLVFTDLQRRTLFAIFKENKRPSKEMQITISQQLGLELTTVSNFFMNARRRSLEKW

T3: OC2 CUT domain (human, UniProt O95948 317-417)
T3 sequence: T1 sequence 1

T4: OC2R480 (human, UniProt O95948 330-485, R480A)
T4 sequence: T2 sequence with R151A

T5: OC2N (human, UniProt O95948 330-485, N476A)
T5 sequence: T2 sequence with N147A

T6: OC2R479 (human, UniProt O95948 330-485, R479A)
T6 sequence: T2 sequence with R150A

T7: OC2SQ (human, UniProt O95948 330-485, S364A;Q365A)
T7 sequence: T2 sequence with S35A, Q36A

T8: ONECUT2 (OC2) residues 317-417, containing the CUT domain (Homo sapiens (Human), UniProt O95948)
T8 chain: T1 sequence 1

B1: PEG10 promoter DNA (12mer duplex) (dsDNA)
DNA 1: AGATCGATTTGC
DNA 2: GCAAATCGATCT
B2: ONECUT2 (OC2) residues 420-490, containing the HOX domain (protein)
chain: T1 sequence 2

Legend:
[1] = target: T1, OC2 CUT domain;OC2 HOX domain; experiment: ITC; CUT and HOX as separate polypeptides; ITC: 1X PBS pH 7.4, 0.005% Tween-20, 1 mM beta-ME, 25 C (also 12 and 30 C for heat capacity); BLI: 1X PBS, 0.5 mM TCEP, 0.005% Tween-20; conditions: protein: recombinant;recombinant; copies: 1;1
[2] = target: T2, OC2 (CUT-HOX DNA binding region, wild …); experiment: ITC; 25 C; ITC: 1X PBS pH 7.4, 0.005% Tween-20, 1 mM beta-ME, 25 C (also 12 and 30 C for heat capacity); BLI: 1X PBS, 0.5 mM TCEP, 0.005% Tween-20; conditions: protein: recombinant; tags: His6 removed by TEV
[3] = target: T3, OC2 CUT domain; experiment: as above; conditions: protein: recombinant; tags: His6-MBP, removed by TEV (same protocol as OC2)
[4] = target: T4, OC2R480; experiment: ITC; ITC: 1X PBS pH 7.4, 0.005% Tween-20, 1 mM beta-ME, 25 C (also 12 and 30 C for heat capacity); BLI: 1X PBS, 0.5 mM TCEP, 0.005% Tween-20; conditions: protein: recombinant; tags: His6 removed by TEV
[5] = target: T5, OC2N; experiment: as above; conditions: protein: recombinant; tags: His6 removed by TEV
[6] = target: T6, OC2R479; experiment: as above; conditions: protein: recombinant; tags: His6 removed by TEV
[7] = target: T7, OC2SQ; experiment: as above; conditions: protein: recombinant; tags: His6 removed by TEV
[8] = target: T8, ONECUT2 (OC2) residues 317-417, …; experiment: ITC (implied; data not shown); absence of DNA

| binding result [8] | Binder | Kd [1] [nM] | Kd [2] [nM] | Kd [3] [nM] | Kd [4] [nM] | Kd [5] [nM] | Kd [6] [nM] | Kd [7] [nM] |
| --- | --- | --- | --- | --- | --- | --- | --- | --- |
|  | B1 | 1380 ± 279 | 7 ± 2 | 2030 ± 262 | 47 | 70 ± 11 | 6 | 51 ± 9 |
| no binding | B2 |  |  |  |  |  |  |  |
